Source: PMC4837377

Experiments:
[1] = target: T1, PA;PB1 (in PA-PB1-PB2(1-116));PB2(1-116) (Influenza A virus A/Victoria/3/1975(H3N2);Influenza A virus A/Victoria/3/1975(H3N2);Influenza A virus A/Victoria/3/1975(H3N2)) (UniProt P03432+H9XIJ5); assay: fluorescence anisotropy
[2] = target: PA;PB1(1-686) (Influenza A virus A/Victoria/3/1975(H3N2);Influenza A virus A/Victoria/3/1975(H3N2)) (UniProt P03432); assay: fluorescence anisotropy; settings: 5'-monophosphate
[3] = test system: PA;PB1(1-686);RanBP5 (Influenza A virus A/Victoria/3/1975(H3N2);Influenza A virus A/Victoria/3/1975(H3N2);Homo sapiens), P03432+O00410-3; assay: fluorescence anisotropy; settings: 5'-monophosphate
Chain of PA;PB1(1-686);RanBP5 (Influenza A virus A/Victoria/3/1975(H3N2);Influenza A virus A/Victoria/3/1975(H3N2);Homo sapiens), P03432+O00410-3 (O00410 whole entry, looked up, chain 1 of 2): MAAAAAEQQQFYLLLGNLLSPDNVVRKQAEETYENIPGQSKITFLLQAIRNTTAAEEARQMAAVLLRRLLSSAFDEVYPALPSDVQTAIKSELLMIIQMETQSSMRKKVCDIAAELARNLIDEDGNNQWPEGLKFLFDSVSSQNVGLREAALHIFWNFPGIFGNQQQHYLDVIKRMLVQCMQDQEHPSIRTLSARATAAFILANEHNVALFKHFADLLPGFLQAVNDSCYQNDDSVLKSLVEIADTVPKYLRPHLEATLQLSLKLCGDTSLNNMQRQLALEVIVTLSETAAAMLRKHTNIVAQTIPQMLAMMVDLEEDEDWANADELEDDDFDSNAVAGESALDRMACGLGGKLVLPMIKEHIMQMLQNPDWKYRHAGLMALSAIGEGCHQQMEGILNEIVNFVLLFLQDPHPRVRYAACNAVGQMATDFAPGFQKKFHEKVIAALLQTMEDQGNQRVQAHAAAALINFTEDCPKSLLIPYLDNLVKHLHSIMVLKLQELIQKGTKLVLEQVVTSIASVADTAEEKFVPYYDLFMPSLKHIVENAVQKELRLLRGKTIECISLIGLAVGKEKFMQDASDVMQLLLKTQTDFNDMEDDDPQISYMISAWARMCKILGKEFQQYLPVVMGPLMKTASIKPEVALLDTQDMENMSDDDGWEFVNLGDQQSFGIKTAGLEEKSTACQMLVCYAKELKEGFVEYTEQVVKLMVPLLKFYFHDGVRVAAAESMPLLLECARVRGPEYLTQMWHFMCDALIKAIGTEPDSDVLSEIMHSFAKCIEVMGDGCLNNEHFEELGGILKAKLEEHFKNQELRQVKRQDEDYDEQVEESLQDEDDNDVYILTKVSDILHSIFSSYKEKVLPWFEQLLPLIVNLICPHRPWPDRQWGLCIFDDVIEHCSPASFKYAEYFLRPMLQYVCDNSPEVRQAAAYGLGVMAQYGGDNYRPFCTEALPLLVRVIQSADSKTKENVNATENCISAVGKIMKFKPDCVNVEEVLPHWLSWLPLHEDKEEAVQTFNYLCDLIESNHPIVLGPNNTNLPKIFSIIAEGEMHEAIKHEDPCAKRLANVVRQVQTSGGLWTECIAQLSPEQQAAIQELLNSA
Chain of PA;PB1(1-686);RanBP5 (Influenza A virus A/Victoria/3/1975(H3N2);Influenza A virus A/Victoria/3/1975(H3N2);Homo sapiens), P03432+O00410-3 (P03432 whole entry, looked up, chain 2 of 2): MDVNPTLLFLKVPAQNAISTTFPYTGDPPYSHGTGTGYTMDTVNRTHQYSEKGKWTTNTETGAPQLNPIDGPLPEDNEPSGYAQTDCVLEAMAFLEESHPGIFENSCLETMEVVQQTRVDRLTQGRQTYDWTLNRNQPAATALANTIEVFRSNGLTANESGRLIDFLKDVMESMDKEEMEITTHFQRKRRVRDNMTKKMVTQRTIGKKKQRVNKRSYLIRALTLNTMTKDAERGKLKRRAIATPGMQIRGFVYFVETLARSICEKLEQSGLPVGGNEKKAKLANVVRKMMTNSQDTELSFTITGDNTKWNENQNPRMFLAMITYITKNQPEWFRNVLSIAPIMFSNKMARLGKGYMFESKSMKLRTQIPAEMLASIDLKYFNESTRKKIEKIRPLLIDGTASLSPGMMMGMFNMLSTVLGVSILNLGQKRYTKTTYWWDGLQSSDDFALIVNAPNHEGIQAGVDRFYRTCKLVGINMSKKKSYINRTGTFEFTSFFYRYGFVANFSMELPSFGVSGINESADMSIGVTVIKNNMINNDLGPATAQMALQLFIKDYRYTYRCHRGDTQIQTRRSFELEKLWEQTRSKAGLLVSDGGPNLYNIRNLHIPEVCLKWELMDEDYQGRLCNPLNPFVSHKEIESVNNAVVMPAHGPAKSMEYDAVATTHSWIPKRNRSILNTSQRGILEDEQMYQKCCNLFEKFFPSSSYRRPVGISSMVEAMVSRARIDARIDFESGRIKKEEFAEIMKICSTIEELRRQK

[4] = target: T1, PA;PB1 (in PA-PB1-PB2(1-116));PB2(1-116) (Influenza A virus A/Victoria/3/1975(H3N2);Influenza A virus A/Victoria/3/1975(H3N2);Influenza A virus A/Victoria/3/1975(H3N2)); assay: filter binding
[5] = target: PA;PB1(1-686) (Influenza A virus A/Victoria/3/1975(H3N2);Influenza A virus A/Victoria/3/1975(H3N2)) (UniProt P03432); assay: filter binding
NP = assay: fluorescence anisotropy; settings: 5'-monophosphate

T1 sequence (P03432 whole entry, looked up, chain 2 of 2, other chains not shown): as the sequence (P03432 whole entry, looked up, chain 2 of 2) above
Chain of PA;PB1(1-686) (Influenza A virus A/Victoria/3/1975(H3N2);Influenza A virus A/Victoria/3/1975(H3N2)) (P03432 whole entry, looked up): as the sequence (P03432 whole entry, looked up, chain 2 of 2) above

AGUAGAAACAAGGGUA [5'-vRNAp]
Kd ([1]; 5'-monophosphate): 0.83 nM | Kd [2]: 0.87 nM | Kd [3]: > 1000 nM

AUACCCUGCUUUUGCU [3'-vRNAp (32P)]
Kd [4]: 17 nM

AUACCCUGCUUUUGCU [3'-vRNAp]
Kd [1]: 36 nM

AGUAGAAACAAGGGUA [5'-vRNAp (32P)]
Kd [4]: 0.19 nM | Kd [5]: 0.38 nM

UCUCUCUCUCUCUCUCUC [polyUC]
Kd (NP): 29 nM | Kd ([1]; 5'-monophosphate): > 1000 nM
